# What was measured:
# [1] = target: T1, Human neutrophil elastase (Homo sapiens, UniProt P08246 P08246:30-267); assay: filter; 6 mM KCl, 2 mM MgCl2, pH 7.0; details: tags: Athens Research and Technology
# [2] = target: T1, Human neutrophil elastase; assay: filter; 3'-truncated; details: tags: Athens Research and Technology
# Description: (§1) With the use of PCR primers specific for the 3' sequence of the 2'-NH₂ modified RNA ligand, the 3'-fixed regions for four different ligands (class I ligand 12, class II ligand 14, class III ligand 9 and class IV ligand 19) were eliminated.
# [3] = target: T1, Human neutrophil elastase; assay: filter; better at pH 5, Kd rises about 3-fold over two pH units; ligand 17 legend cites SEQ ID NO:1, sequence taken from Example 7; details: tags: Athens Research and Technology; G4 predicted
# [4] = target: T1, Human neutrophil elastase; assay: competition; competes with ligand 24; details: tags: Athens Research and Technology; G4 predicted
# Thrombin = Thrombin (UniProt P00734;P00734 P00734:328-363,P00734:364-622); assay: filter; specificity control
# [5] = target: T1, Human neutrophil elastase; assay: filter; no KCl in binding buffer; details: tags: Athens Research and Technology; G4 predicted
# [6] = target: T1, Human neutrophil elastase; assay: filter; 3'-truncated; also FIG. 1; details: tags: Athens Research and Technology
# Description: as §1
# [7] = target: Basic fibroblast growth factor (bFGF) (UniProt P09038 P09038:143-288); assay: filter; specificity control
# Basic fibroblast growth factor (bFGF), sequence (P09038 143-288, one chain of several): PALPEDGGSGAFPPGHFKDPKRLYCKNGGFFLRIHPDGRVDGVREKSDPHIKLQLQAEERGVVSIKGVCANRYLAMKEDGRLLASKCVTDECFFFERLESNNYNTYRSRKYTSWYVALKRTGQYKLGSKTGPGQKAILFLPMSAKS
# T1 sequence (P08246 30-267, one chain of several): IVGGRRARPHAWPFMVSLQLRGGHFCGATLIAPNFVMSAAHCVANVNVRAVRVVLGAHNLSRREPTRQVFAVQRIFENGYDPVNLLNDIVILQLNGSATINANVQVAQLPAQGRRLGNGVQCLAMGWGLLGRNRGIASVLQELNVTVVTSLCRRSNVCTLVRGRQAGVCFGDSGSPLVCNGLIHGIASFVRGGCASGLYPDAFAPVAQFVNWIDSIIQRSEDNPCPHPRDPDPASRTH
binder,measurement,setting,value
"ligand 44 (class I) (ssRNA, 2'-NH2 all pyrimidines) RNA: GGGAGCUCAGAAUAAACGCUCAAGAGUAGGCUUGACGCUGGGGGGGUAUGGCUUCGACUUGCGUUCGACAUGAGGCCCGGAUCCGGC",Kd,[1],28 nM
"ligand 22 (class V) (ssRNA, 2'-NH2 all pyrimidines) RNA: GGGAGCUCAGAAUAAACGCUCAAGGCCCUCUGAACCGUCUGGGCGUGGUUAGUGGGUGGCUUCGACAUGAGGCCCGGAUCCGGC",Kd,[1],24 nM
"ligand 3 (class VI) (ssRNA, 2'-NH2 all pyrimidines) RNA: GGGAGCUCAGAAUAAACGCUCAAUGAGGUUGAGUAGUCGUGGUAAUGGCCACGGCUGGGGGGGUCGGUUCGACAUGAGGCCCGGAUCCGGC",Kd,[1],28 nM
"ligand 4 (class V) (ssRNA, 2'-NH2 all pyrimidines) RNA: GGGAGCUCAGAAUAAACGCUCAACGGAUCGGGCGGUCGUCUAGCGGGAUGGCGUGCGGGUGGAUUCGACAUGAGGCCCGGAUCCGGC",Kd,[1],172 nM
"ligand 19 (class IV) (ssRNA, 2'-NH2 all pyrimidines) RNA: GGGAGCUCAGAAUAAACGCUCAAUGCCCGGCAGUACUGCACGGCCUCGGGGGGGACCAGGGAGUUCGACAUGAGGCCCGGAUCCGGC",Kd,[1],8 nM
"ligand 12 3'-truncated (ssRNA, 2'-NH2 all pyrimidines) RNA: GGGAGCUCAGAAUAAACGCUCAAGAGUAGGCUUGACGCCUGGGGGGGUAUGGCUUCGACUGCG",Kd,[2],10 nM
"ligand 26 (class III) (ssRNA, 2'-NH2 all pyrimidines) RNA: GGGAGCUCAGAAUAAACGCUCAACGCCUUAGUCGCCAUAAUGCUGUCGGGGUGGAUAGGGUGGUUCGACAUGAGGCCCGGAUCCGGC",Kd,[1],38 nM
"ligand 19 3'-truncated (ssRNA, 2'-NH2 all pyrimidines) RNA: GGGAGCUCAGAAUAAACGCUCAAUGCCCGGCAGUACUGCACGGCCUCGGGGGGGACCAGGGAG",Kd,[2],648 nM
DNA-17 (ssDNA) DNA: TAGCGATACTGCGTGGGTTGGGGCGGGTAGGGCCAGCAGTCTCGTGCGGTACTTGAGCA,binding result,[3],binds
"ligand 46 (class VI) (ssRNA, 2'-NH2 all pyrimidines) RNA: GGGAGCUCAGAAUAAACGCUCAAUGGAUAGCGCUGCGUGACCGCGCUGGGGGGGUUGGCAGGGUUCGACAUGAGGCCCGGAUCCGGC",Kd,[1],13 nM
"ligand 30 (class I; ligand 12 same SEQ ID) (ssRNA, 2'-NH2 all pyrimidines) RNA: GGGAGCUCAGAAUAAACGCUCAAGAGUAGGCUUGACGCCUGGGGGGGUAUGGCUUCGACUGCGUUCGACAUGAGGCCCGGAUCCGGC",binding result,[4],binds
"ligand 28 (class IV) (ssRNA, 2'-NH2 all pyrimidines) RNA: GGGAGCUCAGAAUAAACGCUCAAAUCGGAUAGCGCCGCGAUGGCGUCUGGGGGGGACCAGGGAUUCGACAUGAGGCCCGGAUCCGGC",Kd,[1],57 nM
"ligand 24 (class II) (ssRNA, 2'-NH2 all pyrimidines) RNA: GGGAGCUCAGAAUAAACGCUCAAGGUAGACAUACGCCUUGGGGGGGUAUCAGGGUAUAUGGUAUUCGACAUGAGGCCCGGAUCCGGC",Kd,Thrombin,600 nM
same,Kd,[1]; G4 predicted,11 nM
"ligand 21 (class II; ligand 56 same SEQ ID) (ssRNA, 2'-NH2 all pyrimidines) RNA: GGGAGCUCAGAAUAAACGCUCAAGGUAGACAUACGCCUUGGGGGGGUGUCAGGGUAUAUGGUAUUCGACAUGAGGCCCGGAUCCGGC",Kd,[1]; G4 predicted,39 nM
same,Kd,[5],192 nM
"ligand 14 (class II) (ssRNA, 2'-NH2 all pyrimidines) RNA: GGGAGCUCAGAAUAAACGCUCAAGGCAGACAUACGCCUUGGGGGGGUUUCAGGGUAUAUGGCAUUCGACAUGAGGCCCGGAUCCGGC",Kd,[1],17 nM
"ligand 9 3'-truncated (ssRNA, 2'-NH2 all pyrimidines) RNA: GGGAGCUCAGAAUAAACGCUCAAGGAAUGAAUGUGAUGAACAGGUGUCGGGGUGGAUGGGUGG",Kd,[2],989 nM
"ligand 14 3'-truncated (ssRNA, 2'-NH2 all pyrimidines) RNA: GGGAGCUCAGAAUAAACGCUCAAGGCAGACAUACGCCUUGGGGGGGUUUCAGGGUAUAUGGCA",Kd,[6],14.5 nM
"ligand 9 (class III) (ssRNA, 2'-NH2 all pyrimidines) RNA: GGGAGCUCAGAAUAAACGCUCAAGGAAUGAAUGUGAUGAACAGGUGUCGGGGUGGAUGGGUGGUUCGACAUGAGGCCCGGAUCCGGC",Kd,[7],500 nM

# Source: patent US5472841, “Methods for identifying nucleic acid ligands of human neutrophil elastase” (NeXstar Pharmaceuticals, Inc.)
